# Assay results reported in paper PMC4016012, “Successful Conversion of the Bacillus subtilis BirA Group II Biotin Protein Ligase into a Group I Ligase” (PLoS ONE, 2014).
# T1: BirA (biotin protein ligase, Group II) (Bacillus subtilis 168) (UniProt P0CI75)
# T1 sequence: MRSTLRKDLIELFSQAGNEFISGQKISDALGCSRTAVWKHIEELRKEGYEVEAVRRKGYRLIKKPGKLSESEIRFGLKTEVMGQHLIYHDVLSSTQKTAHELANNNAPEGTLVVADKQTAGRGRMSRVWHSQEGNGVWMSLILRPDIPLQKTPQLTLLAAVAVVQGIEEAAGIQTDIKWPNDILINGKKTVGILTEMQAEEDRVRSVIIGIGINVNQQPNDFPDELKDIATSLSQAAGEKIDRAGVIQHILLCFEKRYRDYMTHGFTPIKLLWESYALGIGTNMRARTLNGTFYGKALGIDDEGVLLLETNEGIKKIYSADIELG
# Molecular target: the molecule itself
# Assay: cross-linking; purified BirA 30 µM in 50 mM HEPES pH 7.5, 500 mM NaCl, 0.1 mM TCEP, 5% glycerol; with biotin (0.1 mM) and ATP (0.1 mM), room temperature 30 min; EGS 0.125-0.5 mM, room temperature 30 min; SDS-PAGE on 4-20% gels
# Conditions: not given
row,Molecule,stoichiometry N
1,"B. subtilis N-terminally hexahistidine-tagged BirA (enzyme, Bacillus subtilis, UniProt P0CI75 1-325, looked up, 325 residues by the names of the constructs (64-325 etc.); no step that removes the tag is described; The vector is pET19b, whose own tag may be longer than six histidines and is followed by a linker (surmise); also called wild type BirA; B. subtilis BirA; source: E. coli BL21 (λ DE3) with pSKH001, purified (Ni NTA)) MRSTLRKDLIELFSQAGNEFISGQKISDALGCSRTAVWKHIEELRKEGYEVEAVRRKGYRLIKKPGKLSESEIRFGLKTEVMGQHLIYHDVLSSTQKTAHELANNNAPEGTLVVADKQTAGRGRMSRVWHSQEGNGVWMSLILRPDIPLQKTPQLTLLAAVAVVQGIEEAAGIQTDIKWPNDILINGKKTVGILTEMQAEEDRVRSVIIGIGINVNQQPNDFPDELKDIATSLSQAAGEKIDRAGVIQHILLCFEKRYRDYMTHGFTPIKLLWESYALGIGTNMRARTLNGTFYGKALGIDDEGVLLLETNEGIKKIYSADIELG",2
2,"B. subtilis N-terminally hexahistidine-tagged Δ2-65 BirA (domain or fragment, Bacillus subtilis, UniProt P0CI75 66-325, looked up, no step that removes the tag is described; Primer SKH047 (BirA 66-325 NdeI F) reads ATGGGAAAACTCAGTGAAAGC, i.e. M-GKLSES; also called BirA 66-325; Δ2-66 BirA (so named in the methods); source: E. coli BL21 (λ DE3) with pSKH020, purified (Ni NTA)) GKLSESEIRFGLKTEVMGQHLIYHDVLSSTQKTAHELANNNAPEGTLVVADKQTAGRGRMSRVWHSQEGNGVWMSLILRPDIPLQKTPQLTLLAAVAVVQGIEEAAGIQTDIKWPNDILINGKKTVGILTEMQAEEDRVRSVIIGIGINVNQQPNDFPDELKDIATSLSQAAGEKIDRAGVIQHILLCFEKRYRDYMTHGFTPIKLLWESYALGIGTNMRARTLNGTFYGKALGIDDEGVLLLETNEGIKKIYSADIELG",2

# Molecular target: T1, BirA (biotin protein ligase, Group II) (Bacillus subtilis 168)
# Assay: EMSA
# Conditions: 50 mM Tris-HCl pH 8.0, 1 mM EDTA, 50 mM NaCl, 10% glycerol, 40 nM DNA, 15.6-500 nM BirA, 1 mM ATP, 1 mM MgCl2, 1 uM biotin; room temperature 30 min; 6% gel in …
row,Molecule,binding
1,AACGATCGGGATTTCCATTTTCATCGATTCCAAAATGGCTACCTCCTGGCCCTTTTCGATTTGGTCGCCGGCTTTGACGTGGACTTTCCACAGGTTTCCTGCCATTTGTATGCTAACCGTCATGC (double strand) [non-operator DNA (yngHB/blap internal fragment)],no binding
2,ATTCAAAGGTTAACAATTAGAATATATTATTCTCTCCTGTTTCTGTCAATAGAAGAAAGGATCGATTTATGGCAGTTGGTTAAAAGGAAACAAAAAGACCGTTTTCACACAAAACGGTCTTTTTC (double strand) [B. subtilis bioO half site],no binding
3,CCAAAAAGTAATCAAATATGGTTATACAATAAATGCAGGTAATTATTATGTCAACTGATTTTTAATTTAAGTTTACATAATGAACGCAAAAAAACCGGCCGTATGGCAGACCGGTTTTTGATGGT (double strand) [yhfU operator],binds
4,CCCTTAGGTTGACATACACAATCATAGAGTAATAAAGAACAAAAAGATTGTCAACATGATTTTAAATTAGGTTAACAAAAAGGAGGCCCATATGTATTTCGGAAAAACAAGACAGTCCGATCAAT (double strand) [yuiG operator],binds
5,CCTTTCACTGATAACTGAAGAACGTGTAGCGCTTCTCACCTAAATTGTTAACCAATTATATTCAAAGGTTAACAATTAGAATATATTATTCTCTCCTGTTTCTGTCAATAGAAGAAAGGATC (double strand) [B. subtilis bioO (bioWAFDBI operator)],binds
6,GGGGCTTCTCCAAAACGTGTTTTTTGTTGTTAATTCGGTGTAGACTTGTAAACCTAAATCTTTTCAATTTGGTTTACAAGTCGATTATGACAACGGACGATCTTGCCTTTGACCAACGCCATATC (double strand) [E. coli bioO],binds more weakly
